Measured values taken from publication PMC9482650, “Quantitative fragmentomics allow affinity mapping of interactomes” (Nature Communications, 2022).

T1: APBA3_1, O96018
T1 sequence (O96018 389-490, limits assumed, looked up): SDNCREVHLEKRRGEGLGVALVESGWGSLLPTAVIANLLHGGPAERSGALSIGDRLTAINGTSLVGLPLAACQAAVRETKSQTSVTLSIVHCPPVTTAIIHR

T2: DLG3_3, Q92796
T2 sequence (Q92796 374-475, limits assumed, looked up): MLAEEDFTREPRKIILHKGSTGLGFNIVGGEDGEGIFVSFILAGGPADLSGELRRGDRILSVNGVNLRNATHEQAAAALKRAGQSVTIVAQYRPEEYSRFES

T3: LIN7B, Q9HAP6
T3 sequence (Q9HAP6 88-185, limits assumed, looked up): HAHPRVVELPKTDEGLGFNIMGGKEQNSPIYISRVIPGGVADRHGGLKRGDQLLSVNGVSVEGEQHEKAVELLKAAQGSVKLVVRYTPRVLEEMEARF

T4: LRRC7, Q96NW7
T4 sequence (Q96NW7 1440-1537, limits assumed, looked up): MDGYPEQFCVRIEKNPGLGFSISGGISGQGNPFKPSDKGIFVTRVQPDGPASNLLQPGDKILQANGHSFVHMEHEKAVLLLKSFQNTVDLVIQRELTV

T5: MPDZ_10, O75970
T5 sequence (O75970 1624-1722, limits assumed, looked up): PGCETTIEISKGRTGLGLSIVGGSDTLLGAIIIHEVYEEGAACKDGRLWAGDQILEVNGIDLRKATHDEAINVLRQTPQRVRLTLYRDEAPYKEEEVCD

T6: MPP6, Q9NZW5
T6 sequence (Q9NZW5 125-219, limits assumed, looked up): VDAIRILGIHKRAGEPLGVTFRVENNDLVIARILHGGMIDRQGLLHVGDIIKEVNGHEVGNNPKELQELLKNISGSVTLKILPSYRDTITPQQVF

T7: PARD3B_1, Q8TEW8
T7 sequence (Q8TEW8 196-299, limits assumed, looked up): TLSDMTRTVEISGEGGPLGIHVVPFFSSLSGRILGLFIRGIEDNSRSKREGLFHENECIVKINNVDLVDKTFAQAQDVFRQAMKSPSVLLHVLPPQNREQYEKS

T8: RADIL, Q96JH8
T8 sequence (Q96JH8 971-1071, limits assumed, looked up): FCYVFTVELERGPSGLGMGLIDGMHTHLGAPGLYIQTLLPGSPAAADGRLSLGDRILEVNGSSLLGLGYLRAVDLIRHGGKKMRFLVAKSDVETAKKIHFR

T9: SNTG2, Q9NY99
T9 sequence (Q9NY99 68-166, limits assumed, looked up): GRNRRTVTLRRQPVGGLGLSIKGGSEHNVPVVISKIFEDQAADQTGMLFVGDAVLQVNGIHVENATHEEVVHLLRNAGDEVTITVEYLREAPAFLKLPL

T10: SYNJ2BP, P57105
T10 sequence (P57105 8-110, limits assumed, looked up): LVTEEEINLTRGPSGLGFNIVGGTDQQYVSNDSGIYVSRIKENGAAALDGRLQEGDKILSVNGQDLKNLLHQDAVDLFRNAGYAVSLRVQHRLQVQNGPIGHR


Key:
Test in all cases: holdup assay
Parameters in all cases: key: below the threshold = too weak to quantify, mostly under pKd 3.1 to 4
Settings in all cases: plain residues with an end cap or a label only (N-terminal biotin on a linker: ado-ado)
[1] = target: AHNAK1, Q09666
[2] = target: T1, APBA3_1, O96018
[3] = target: DLG1_3, Q12959
[4] = target: T2, DLG3_3, Q92796
[5] = target: DLG4_3, P78352
[6] = target: DLG5_1, Q8TDM6
[7] = target: FRMPD3, Q5JV73
[8] = target: GRASP, Q7Z6J2
[9] = target: IL16_4, Q14005
[10] = target: Inadl_2, Q8NI35
[11] = target: Inadl_6, Q8NI35
[12] = target: Inadl_9, Q8NI35
[13] = target: T3, LIN7B, Q9HAP6
[14] = target: T4, LRRC7, Q96NW7
[15] = target: MAGI1_2, Q96QZ7
[16] = target: MAST1, Q9Y2H9
[17] = target: T5, MPDZ_10, O75970
[18] = target: T6, MPP6, Q9NZW5
[19] = target: NHERF2_2, Q15599
[20] = target: NHERF4_1, Q86UT5-2
[21] = target: NOS1, P29475
[22] = target: T7, PARD3B_1, Q8TEW8
[23] = target: PARD3_3, Q8TEW0
[24] = target: T8, RADIL, Q96JH8
[25] = target: T9, SNTG2, Q9NY99
[26] = target: SNX27, Q96L92
[27] = target: T10, SYNJ2BP, P57105
[28] = target: TJP2_1, Q9UDY2
Sequence of TJP2_1, Q9UDY2 (Q9UDY2 24-128): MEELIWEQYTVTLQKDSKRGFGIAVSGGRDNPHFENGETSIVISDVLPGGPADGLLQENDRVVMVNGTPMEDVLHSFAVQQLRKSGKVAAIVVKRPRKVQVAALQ

Sequence of GRASP, Q7Z6J2 (Q7Z6J2 96-193): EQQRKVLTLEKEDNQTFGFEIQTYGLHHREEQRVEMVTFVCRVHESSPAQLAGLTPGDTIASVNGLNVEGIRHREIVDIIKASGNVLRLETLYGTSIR
Sequence of Inadl_6, Q8NI35 (Q8NI35 1058-1167): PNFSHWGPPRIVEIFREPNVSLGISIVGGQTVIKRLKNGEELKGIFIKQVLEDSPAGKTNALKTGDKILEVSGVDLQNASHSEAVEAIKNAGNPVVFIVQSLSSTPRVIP
Sequence of DLG4_3, P78352 (P78352 306-403): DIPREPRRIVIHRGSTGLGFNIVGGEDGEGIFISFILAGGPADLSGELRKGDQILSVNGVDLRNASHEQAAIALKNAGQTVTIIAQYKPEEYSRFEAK
Sequence of MAST1, Q9Y2H9 (Q9Y2H9 962-1065): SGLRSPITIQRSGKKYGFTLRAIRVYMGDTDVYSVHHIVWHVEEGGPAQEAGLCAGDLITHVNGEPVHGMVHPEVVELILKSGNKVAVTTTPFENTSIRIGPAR
Sequence of IL16_4, Q14005 (Q14005 1229-1329): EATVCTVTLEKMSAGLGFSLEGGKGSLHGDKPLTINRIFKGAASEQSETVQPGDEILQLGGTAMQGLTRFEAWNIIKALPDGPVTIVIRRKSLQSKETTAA
Sequence of Inadl_9, Q8NI35 (Q8NI35 1530-1615): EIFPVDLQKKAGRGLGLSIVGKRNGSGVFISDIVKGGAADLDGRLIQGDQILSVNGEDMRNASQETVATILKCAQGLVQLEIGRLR
Sequence of NHERF2_2, Q15599 (Q15599 142-238): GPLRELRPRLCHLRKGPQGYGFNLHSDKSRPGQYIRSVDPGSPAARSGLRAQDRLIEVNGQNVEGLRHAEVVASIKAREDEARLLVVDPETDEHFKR
Sequence of DLG1_3, Q12959 (Q12959 457-571): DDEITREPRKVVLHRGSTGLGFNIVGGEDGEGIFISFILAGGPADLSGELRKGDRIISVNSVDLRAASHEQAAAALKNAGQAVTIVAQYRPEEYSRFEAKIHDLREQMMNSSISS
Sequence of FRMPD3, Q5JV73 (Q5JV73 12-100): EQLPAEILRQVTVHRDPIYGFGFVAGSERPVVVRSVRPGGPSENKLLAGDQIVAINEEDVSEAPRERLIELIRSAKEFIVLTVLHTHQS
Sequence of DLG5_1, Q8TDM6 (Q8TDM6 617-713): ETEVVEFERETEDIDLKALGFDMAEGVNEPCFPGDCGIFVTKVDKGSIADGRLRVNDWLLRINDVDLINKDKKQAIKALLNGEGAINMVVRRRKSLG
Sequence of AHNAK1, Q09666 (Q09666 4-100): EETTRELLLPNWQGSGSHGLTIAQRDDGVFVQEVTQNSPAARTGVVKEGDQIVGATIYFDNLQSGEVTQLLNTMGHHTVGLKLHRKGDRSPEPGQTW
Sequence of PARD3_3, Q8TEW0 (Q8TEW0 582-685): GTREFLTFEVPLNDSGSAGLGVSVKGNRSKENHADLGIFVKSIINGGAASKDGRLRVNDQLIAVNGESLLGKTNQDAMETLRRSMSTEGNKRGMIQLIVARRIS
Sequence of MAGI1_2, Q96QZ7 (Q96QZ7 456-580): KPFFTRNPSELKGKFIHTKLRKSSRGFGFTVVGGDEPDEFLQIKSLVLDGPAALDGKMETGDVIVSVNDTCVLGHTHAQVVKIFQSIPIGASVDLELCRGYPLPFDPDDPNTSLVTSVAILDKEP
Sequence of NHERF4_1, Q86UT5-2 (Q86UT5 other isoform, or with tags, fused parts or gaps): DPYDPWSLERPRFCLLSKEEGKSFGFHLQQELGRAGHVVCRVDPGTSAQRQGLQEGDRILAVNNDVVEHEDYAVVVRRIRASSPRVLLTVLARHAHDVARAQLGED
Sequence of Inadl_2, Q8NI35 (Q8NI35 238-335): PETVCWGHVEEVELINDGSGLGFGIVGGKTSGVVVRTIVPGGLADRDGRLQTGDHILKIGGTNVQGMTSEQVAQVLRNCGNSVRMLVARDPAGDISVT
Sequence of NOS1, P29475 (P29475 9-101): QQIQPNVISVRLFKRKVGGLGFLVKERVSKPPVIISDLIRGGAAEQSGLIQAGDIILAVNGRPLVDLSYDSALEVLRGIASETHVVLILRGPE

Row | Binder | pKd [1] | pKd [2] | pKd [3] | pKd [4] | pKd [5] | pKd [6] | pKd [7] | pKd [8] | pKd [9] | pKd [10] | pKd [11] | pKd [12] | pKd [13] | pKd [14] | pKd [15] | pKd [16] | pKd [17] | pKd [18] | pKd [19] | pKd [20] | further results
1 | QLSFNTDTLC [ABCA2, Q9BZC7] | below the threshold | below the threshold | below the threshold | below the threshold | below the threshold | below the threshold | below the threshold | below the threshold | below the threshold | below the threshold | below the threshold | below the threshold | 3.66 | below the threshold | below the threshold | 4.16 | below the threshold | below the threshold | 3.59 | 4.18 | pKd [21]: 3.65; pKd [22]: 3.67; pKd [23]: below the threshold; pKd [24]: 3.49; pKd [25]: below the threshold; pKd [26]: 4.17; pKd [27]: 3.58; pKd [28]: below the threshold
2 | EDLEDEWEVI [TECPR2, O15040] | below the threshold | below the threshold | below the threshold | below the threshold | below the threshold | below the threshold | below the threshold | below the threshold | below the threshold | below the threshold | below the threshold | below the threshold | 3.74 | below the threshold | below the threshold | 3.68 | below the threshold | below the threshold | below the threshold | below the threshold | pKd [21]: below the threshold; pKd [22]: 4.3; pKd [23]: 5.6; pKd [24]: below the threshold; pKd [25]: below the threshold; pKd [26]: below the threshold; pKd [27]: below the threshold; pKd [28]: below the threshold
